Reference: patent publication US12460006B2, “Antibodies against integrin alpha 11 beta 1” (Momenta Pharmaceuticals, Inc., priority 2019, dated 2025)
Changes are numbered by the printed parent chain.

Columns and labels:
α1β1, α2β1 and/or α10β1 = test: Counter-screen for cross-reactivity to other collagen receptors; type: binding, human; details: for Off Target: cross-reactivity to α1β1, α2β1, α10β1
Procedure: Wistar rats were immunized with recombinant human α11β1 protein. An enzyme-linked immunosorbent assay (ELISA) was used to test an immune response against target human and mouse proteins. Subsequently, cell fusion (by electro fusion) was performed with animals that produced a good immune response. All fused cells were plated in a 96-well plate and supernatants were screened by ELISA against soluble human and mouse α11β1. Positive clones were counter-screened against human α1β1, α2β1 and α10β1. […] Purified antibodies were then generated from the selected clones and heavy chain and light chain variable domain sequences were obtained from each purified antibody.
10 mice from 5 different strains were immunized with an appropriate mixture of human α11β1, mouse α11β1 and tolerance breaking protein. Plasma titers were evaluated by ELISA against a mixture of human and mouse α11β1. Popliteal, inguinal, and iliac lymph nodes were collected. ELISA-positive anti-human/mouse α11β1 hybridomas were expanded and subjected to a secondary screen against human and mouse α11β1, control HIS protein, and a counter-screen was performed against human […], α2β1 and α10β1. Supernatant IgG concentration was sufficient for functional screening. Selected hybridomas satisfying all the criteria were cloned and clonal hybridomas were confirmed by ELISA against human and mouse α11β1 and subsequently scaled-up and IgGs were purified. Heavy and light chain variable regions of selected hybridomas were then sequenced.
α11β1 belongs to a family of collagen receptors and has a relatively high homology to them. Therefore, the novel antibodies of this invention were counter-screened against α1β1, α2β1 and/or α10β1. Table 2 includes results of cross-reactivity to the other receptors.

[1] = target: T1, α11β1 expressed on the surface of CHO-K1 cells (Homo sapiens, UniProt Q9UKX5); test: FACS antibody binding to CHO-K1 cells expressing human α11; details: for CHO-K1 FACS: binding Yes/No; for CHO-K1 binding EC50 (in words): FACS
T1 construct: expressed in transfected cells; host or cells: CHO-K1
T1 sequence (Q9UKX5 23-1188): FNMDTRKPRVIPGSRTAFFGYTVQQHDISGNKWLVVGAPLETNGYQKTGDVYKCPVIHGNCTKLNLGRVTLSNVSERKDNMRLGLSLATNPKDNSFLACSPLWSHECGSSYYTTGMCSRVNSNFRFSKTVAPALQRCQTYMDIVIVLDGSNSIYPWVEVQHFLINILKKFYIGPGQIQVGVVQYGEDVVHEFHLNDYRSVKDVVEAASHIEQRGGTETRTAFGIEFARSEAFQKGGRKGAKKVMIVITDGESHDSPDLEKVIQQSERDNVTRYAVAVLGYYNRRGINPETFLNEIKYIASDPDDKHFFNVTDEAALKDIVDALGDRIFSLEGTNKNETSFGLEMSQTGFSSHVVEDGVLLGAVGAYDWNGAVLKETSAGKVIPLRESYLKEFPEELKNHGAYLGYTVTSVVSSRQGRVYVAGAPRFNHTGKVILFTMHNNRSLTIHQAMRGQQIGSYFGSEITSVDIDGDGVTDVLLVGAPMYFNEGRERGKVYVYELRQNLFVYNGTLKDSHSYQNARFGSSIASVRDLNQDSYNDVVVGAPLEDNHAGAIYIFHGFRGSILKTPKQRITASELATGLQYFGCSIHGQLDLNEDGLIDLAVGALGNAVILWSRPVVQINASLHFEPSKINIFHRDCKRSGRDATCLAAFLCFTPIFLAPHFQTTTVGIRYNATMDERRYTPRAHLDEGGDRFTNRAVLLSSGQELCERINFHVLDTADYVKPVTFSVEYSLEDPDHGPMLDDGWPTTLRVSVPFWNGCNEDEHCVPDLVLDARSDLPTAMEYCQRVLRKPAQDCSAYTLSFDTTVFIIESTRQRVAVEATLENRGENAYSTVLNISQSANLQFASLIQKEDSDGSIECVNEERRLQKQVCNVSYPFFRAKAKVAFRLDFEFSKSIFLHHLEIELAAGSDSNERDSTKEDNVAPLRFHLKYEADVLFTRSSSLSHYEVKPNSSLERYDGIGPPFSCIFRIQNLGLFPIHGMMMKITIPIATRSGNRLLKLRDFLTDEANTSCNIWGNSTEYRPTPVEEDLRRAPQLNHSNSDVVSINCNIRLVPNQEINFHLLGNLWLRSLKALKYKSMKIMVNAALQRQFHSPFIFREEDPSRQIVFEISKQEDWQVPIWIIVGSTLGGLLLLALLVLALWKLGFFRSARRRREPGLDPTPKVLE
Procedure: 200,000 cells (wild-type CHO-K1 cells or CHO-K1 cells expressing human α11) were incubated with each antibody at desired concentrations in FACS buffer for 30 min at 4° C. Then, the cells were washed with FACS buffer and incubated with secondary antibody at 1:100 dilution for 30 minutes at 4° C. Cells were then washed and fixed with 1% PFA in PBS for 20 minutes at room temperature; washed again and read on a cytometer in FACS buffer.
Since integrins are large, transmembrane receptors that exist in different conformational shapes, experiments were performed to confirm that the novel antibodies also bound cell-expressed α11β1. A CHO-K1 cell line that endogenously expressed high levels of the β1 subunit was engineered to stably express human α11 (CHO-K1 hu α11).
Binding EC50 was estimated using data from Fluorescence-activated cell sorting (FACS) performed with CHO-K1 hu α11β1 cells.

[2] = test system: human pulmonary fibroblasts (HPFs); test: FACS antibody binding to human pulmonary fibroblasts; details: binding Yes/No
Procedure: Human Pulmonary Fibroblasts (ScienCell) were cultured in complete Fibroblast Growth Medium (ScienCell) until 80% confluent in T-150 flasks. Cells were washed and harvested using Accutase. Cells were seeded into T-150 flasks at 7,500 cells/cm^2 in complete FGF and cultured for 72 hours. Cells were then washed and starved in serum reduced medium for 24 hours. After starvation, cells were treated with TGFβ-1 (R&D Systems) for 72 hours. Cells were harvested using Accutase and seeded in 96-well conical bottom plates. Cells were blocked with Heat Inactived Fetal Bovine Serum (Gibco) for 30 minutes at 4° C. Cells were then incubated with anti-α11 antibodies at the doses described in each figure for 30 minutes at 4° C. A human anti-α11 antibody (Creative BioLabs) was included as a positive control as well as the appropriate IgG isotype negative controls. Cells were washed twice and incubated with PE conjugated secondary antibodies specific to the IgG class of the anti-α11 antibodies being tested for 30 minutes at 4° C. Cells were washed twice and fixed in 1% PFA for 30 minutes. Cells were acquired on a FACS Verse […]. Data were analyzed by gating on single cells and determining the geometric Mean Fluorescence Intensity (gMFI) in the PE channel for each sample.
Binding to a physiologically relevant primary human cell type was also tested. Human pulmonary fibroblasts (HPF) and TGFβ treatment were used to induce a fibroblast-to-myofibroblast transition (FMT), giving rise to myofibroblasts (MF). […] Additionally, HPFs express α11 and α2β1, other collagen binding receptors, which means that HPFs can be to test cross-reactivity of antibodies of interest.

B1: 79E3E3: rat anti-α11β1 mAb; VH SEQ ID NO: 145, VL SEQ ID NO: 146 (antibody, V domains shown)
VH: MDWLWNLLFLMVVAQSAQAQIQLVQSGPEVKKPGESVKISCKASGYTFTDYAMNWVKQAPGNGLKWMGWINTQTGKPTYADDFKQRFVFSLETSARTTYLQINNLNIEDTATYFCTRLGTGNTKGFAYWGQGTLVTVSS
VL: MESQTHVLISLLLCVSGTCGDILINQSPASLTVSAGERVTMSCKSSQSLLYSENNQDYLAWYQQKPGQFPKLLIYGASNRHTGVPDRFTGSGSGTDFTLTISSVQAEDLADYYCEQTYRYPFTFGSGTKLEIK
- Off Target (α1β1, α2β1 and/or α10β1): No
- CHO-K1 FACS [1]: Yes
- HPF FACS [2]: No

B2: 8H8E9: rat anti-α11β1 mAb; VH SEQ ID NO: 149, VL SEQ ID NO: 150 (antibody, V domains shown)
VH: MAVLVLLLCLVTFPSCALSQVQLKESGPGLVQPSQTLSLTCTVSGFSLTSNSVSWVRQAPGKGLEWMGAIWSGGSTDYNSALKSRLSISRDTSKSQVFLKMNSLQTEDTAIYFCTRSHWEPFDYWGQGVMVTVSS
VL: MESQTQALISLLLWVYGTCGDIVMTQSPFSLAVSEGEMVTINCKSSQGLLSSGNQKNYLAWYQQRPGQSPKLLIYYASTRQSGVPDRFIGGGSGTDFTLTISDVQAEDLADYYCLQHYSYPPTFGSGTKLEIK
- Off Target (α1β1, α2β1 and/or α10β1): No
- CHO-K1 FACS [1]: Yes

B3: 6E5C11: rat anti-α11β1 mAb; VH SEQ ID NO: 151, VL SEQ ID NO: 152 (antibody, V domains shown)
VH: B2 VH with K24R, S54T, A59P, G73D, A81T, N102S
VL: B2 VL with F29L, M38T, I41M, G48S, L50F, R65K, G91S, A106T, S119N
- Off Target (α1β1, α2β1 and/or α10β1): No
- CHO-K1 FACS [1]: Yes

B4: 8-P20: mouse anti-α11β1 mAb; VH SEQ ID NO: 105, VL SEQ ID NO: 106 (antibody, V domains shown)
VH: KVMLVESGGALVKPGGSLKLSCVASGFTFSNYAMSWVRQTPEKRLEWVATISSGGYYTYYPDSVKGRFTISRDNARNTLFLQMSSLRSEDTAMFYCAREDDYGRYSYTMDYWGQGTSVTVSS
VL: DVVMTQTPLSLPVSLGDQVSISCRCSQSLVHSNGNTYLHWYLQKPGQSPQLLIYKISNRFSGVPDRFSGSGSGTDFTLKISRVEAEDLGVYFCSQSTHVPYTFGGGTELEIK
- Off Target (α1β1, α2β1 and/or α10β1): No
- CHO-K1 binding EC50 (in words) [1]: low nanomolar range
- CHO-K1 FACS [1]: Yes
- HPF FACS [2]: No

B5: 8-J17: mouse anti-α11β1 mAb; VH SEQ ID NO: 113, VL SEQ ID NO: 114 (antibody, V domains shown)
VH: QVQLQQSGAELAKPGASVKMSCKASGYTFTNYWMHWVKQRPGQGLEWIGYINPNNGYTEYNQRFKDKATLTADRSSTTAYMQLSSLTSEDSAVYYCARSDIITTDYWGQGTTLTVSS
VL: B4 VL with V19A, C25S, H31Y, Q50K, I56V, Y101W, E108K
- Off Target (α1β1, α2β1 and/or α10β1): Yes
- CHO-K1 binding EC50 (in words) [1]: low nanomolar range
- CHO-K1 FACS [1]: Yes
- HPF FACS [2]: No

B6: 8-I14: mouse anti-α11β1 mAb; VH SEQ ID NO: 109, VL SEQ ID NO: 110 (antibody, V domains shown)
VH: EVQLQQSGPELVKPGASVKKSCKASGYTFTDYYMHWVKQKPGQGLEWIGKIYPGSGNTHYNEKFKGKATLTADKSSSTAYMQLSSLTSEDSAVYFCATNYYGYRAMNYWGQGSSVTVSS
VL: DIHLTQSPSSLSASLGERISLTCRASQDIYISLNWFQQKPDGTIKLLIYGTSSLDSGVPKRFSGSRSGSDYSLTISSLESEDFADYYCLQYASSPYTFGGGTKLEIK
- Off Target (α1β1, α2β1 and/or α10β1): No
- CHO-K1 binding EC50 (in words) [1]: low nanomolar range
- CHO-K1 FACS [1]: Yes
- HPF FACS [2]: No

B7: 9-G05: mouse anti-α11β1 mAb; VH SEQ ID NO: 103, VL SEQ ID NO: 104 (antibody, V domains shown)
VH: EVQLQQSGPELVKPGASVKIPCKASGYTFPDYNMDWVKQSHGKSLEWIGYINPDNGGTIYNQKFKGKATLTVDKSSSTAYMELRSLTSEDTAVYYCARLDSSGYGYYAMDYWGQGTSVTVSS
VL: DIVLTQSPASLAVSLGQRATISCRASESVDNYGISFMHWYQQKPGQPPKLLIYRASNLDSEIPARFSGSGSRTDFTLTIDPVETDDVATYYCQQSYKDPRTFGGGTKLEIK
- Off Target (α1β1, α2β1 and/or α10β1): No
- CHO-K1 binding EC50 (in words) [1]: not as potent
- CHO-K1 FACS [1]: Yes
- HPF FACS [2]: No

B8: 40G10H11: rat anti-α11β1 mAb; VH SEQ ID NO: 157, VL SEQ ID NO: 158 (antibody, V domains shown)
VH: MDIRLSLGFLVLFIKGDQCAVQLVESGGGLVQPGRSLKLSCAASRITFTDYYMAWVRQAPTKGLEWVATISSDGGDTFYRDSVKGRFTISRDNAKSTLYLQMVSLRSEDTATYYCSTDRGAQFGYWGQGTLVTVSS
VL: MAPVQLLGLLLIWLPAMRCDIQMTQSPSFLSASVGDRVSINCKASQNVHENLNWYQQKLGEAPKRLIYNTNNLQTGIPSRFSGSGSGADYTLTISSLQPEDFATYFCLQHNAFPYTFGPGTKLELK
- cross-reaction with other collagen receptors (α1β1, α2β1 and/or α10β1): does cross-react with other collagen receptors (α1β1, a2β1 and a10β1)
- Off Target (α1β1, α2β1 and/or α10β1): Yes (all)
- CHO-K1 FACS [1]: Yes

B9: 18E10F10: rat anti-α11β1 mAb; VH SEQ ID NO: 155, VL SEQ ID NO: 156 (antibody, V domains shown)
VH: MDIRLSLVFLVLFMKGVQCEVQLVESGGGLVQPGRSLKLSCAASRFTFSDYNMAWVRQAPKKGLEWVATIYHDDSGSYYRDSVKGRFTISRNNAKSTLYLQMDSLRSEDMATYYCARHNNGFDYWGQGVMVTVAS
VL: MKWPVRLLVLFFWIPASGGDVVMTQTPVSLPVRLGGQASISCRSSQSLVHSNGNTYLHWYLQKPGQSPQLLINRVSNRFSGVPDRFSGSGSGTDFTLKINRVEPEDLGDYYCLQSTHFPLTFGSGTKLETK
- Off Target (α1β1, α2β1 and/or α10β1): No
- CHO-K1 FACS [1]: Yes
